Laboratory results published in PMC8184817, “Transmission of light signals from the light-oxygen-voltage core via the hydrophobic region of the β-sheet surface in aureochrome-1” (Scientific Reports, 2021).
Numbering of substitutions follows the chain as printed.

Experiments:
Details in all cases: protein: recombinant; chain copies: 2; label: Alexa Fluor647 (EMSA); biotin (QCM); blunt; self-complementary palindrome, 2 copies
PZ F219V = target: T1, PZ F219V (Vaucheria frigida? (VfAUREO1), UniProt A8QW55 113-348, C162S;C182S;F219V); test: EMSA; QCM; dark state; low EC50; EMSA: 5% polyacrylamide gel, 25 C, dark or blue light 5 W/m2; QCM: 27 MHz, QCM buffer, 25 C; buffer, salt and pH not given (earlier papers cited); EC50 values (nM, per monomer) only in figures
T1 sequence: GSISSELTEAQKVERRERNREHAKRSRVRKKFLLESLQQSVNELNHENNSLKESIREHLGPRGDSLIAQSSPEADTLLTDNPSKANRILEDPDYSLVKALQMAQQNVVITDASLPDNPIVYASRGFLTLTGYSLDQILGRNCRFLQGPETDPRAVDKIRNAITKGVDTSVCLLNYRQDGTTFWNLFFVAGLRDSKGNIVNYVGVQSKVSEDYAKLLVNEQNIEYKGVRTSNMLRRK

PZ L201A = target: T2, PZ L201A (Vaucheria frigida? (VfAUREO1), UniProt A8QW55 113-348, C162S;C182S;L201A); test: EMSA; QCM; dark state; EC50 lower than wtPZ; EMSA: 5% polyacrylamide gel, 25 C, dark or blue light 5 W/m2; QCM: 27 MHz, QCM buffer, 25 C; buffer, salt and pH not given (earlier papers cited); EC50 values (nM, per monomer) only in figures
T2 sequence: T1 sequence with L89A, V107F

[1] = target: T3, PZ L201A/L208A/L212A (triple) (Vaucheria frigida? (VfAUREO1), UniProt A8QW55 113-348, C162S;C182S;L201A;L208A;L212A); test: as above
T3 sequence: T1 sequence with L89A, L96A, L100A, V107F

PZ L208A = target: T4, PZ L208A (Vaucheria frigida? (VfAUREO1), UniProt A8QW55 113-348, C162S;C182S;L208A); test: as above
T4 sequence: T1 sequence with L96A, V107F

PZ Q216A = target: T5, PZ Q216A (Vaucheria frigida? (VfAUREO1), UniProt A8QW55 113-348, C162S;C182S;Q216A); test: EMSA; QCM; dark state; EC50 similar to wtPZ; EMSA: 5% polyacrylamide gel, 25 C, dark or blue light 5 W/m2; QCM: 27 MHz, QCM buffer, 25 C; buffer, salt and pH not given (earlier papers cited); EC50 values (nM, per monomer) only in figures
T5 sequence: T1 sequence with Q104A, V107F

PZ L212A = target: T6, PZ L212A (Vaucheria frigida? (VfAUREO1), UniProt A8QW55 113-348, C162S;C182S;L212A); test: as above
T6 sequence: T1 sequence with L100A, V107F

PZ V314I = target: T7, PZ V314I (Vaucheria frigida? (VfAUREO1), UniProt A8QW55 113-348, C162S;C182S;V314I); test: EMSA; QCM; dark state; EC50 similar to light; EMSA: 5% polyacrylamide gel, 25 C, dark or blue light 5 W/m2; QCM: 27 MHz, QCM buffer, 25 C; buffer, salt and pH not given (earlier papers cited); EC50 values (nM, per monomer) only in figures
T7 sequence: T1 sequence with V107F, V202I

Measured: binding result

B1: dsApo (dsDNA)
DNA 1: GCTGTCTGACGTCAGACAGC
DNA 2: GCTGTCTGACGTCAGACAGC
binds: all assays above
